Measured values: article PMC4666394, “Human HLTF mediates postreplication repair by its HIRAN domain-dependent replication fork remodelling”
Substitutions are numbered along the chain they refer to.

Columns and labels:
[1] = molecular target: T1, HLTF HIRAN domain NN90,91AA (human, UniProt Q14527 56-168, N90A;N91A); experiment: EMSA; Competition: 20 mM HEPES pH 7.5, 150 mM NaCl, 1 mM DTT, 0.1 ug/mL BSA, 0.2% NP40, 10% glycerol, room temperature 15 min; 6% native PAGE 0.5x Tris-borate without EDTA at 4 C; direct gel shift as in cited earlier work; settings: protein: recombinant, tags: FLAG or GST-FLAG, label: 5' 32P
T1 sequence: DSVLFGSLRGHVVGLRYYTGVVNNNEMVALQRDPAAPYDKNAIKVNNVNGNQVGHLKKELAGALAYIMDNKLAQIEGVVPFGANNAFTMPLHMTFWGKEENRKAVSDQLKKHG

[2] = molecular target: T2, HLTF HIRAN domain WT (human, UniProt Q14527 56-168); experiment: as above; settings: protein: recombinant, tags: FLAG (GST-FLAG cleaved by PreScission) or GST-FLAG, label: 5' 32P
T2 sequence: T1 sequence with A35N, A36N

[3] = molecular target: T2, HLTF HIRAN domain WT; experiment: EMSA; high affinity; Competition: 20 mM HEPES pH 7.5, 150 mM NaCl, 1 mM DTT, 0.1 ug/mL BSA, 0.2% NP40, 10% glycerol, room temperature 15 min; 6% native PAGE 0.5x Tris-borate without EDTA at 4 C; direct gel shift as in cited earlier work; settings: protein: recombinant; tags: FLAG (GST-FLAG cleaved by PreScission) or GST-FLAG; label: 5' 32P; fork 1:4 2:3 3:4; two 30 bp daughter arms, 45 bp parental duplex, no ss region
[4] = molecular target: T3, GST-FLAG-HIRAN (WT) (human, UniProt Q14527 56-168); experiment: competition; 0-1 uM competitor against Cy5 fork; competes better than ssDNA; Competition: 20 mM HEPES pH 7.5, 150 mM NaCl, 1 mM DTT, 0.1 ug/mL BSA, 0.2% NP40, 10% glycerol, room temperature 15 min; 6% native PAGE 0.5x Tris-borate without EDTA at 4 C; direct gel shift as in cited earlier work; settings: protein: recombinant; tags: GST-FLAG; label: 5' fluorescein on strand 4 (O3063); fork 1:4 2:3 3:4; two 30 bp daughter arms, 45 bp parental duplex, no ss region
T3 sequence: T1 sequence with A35N, A36N

[5] = 30 bp duplex, 5' overhang 45 nt on strand 2

B1: ds75-mer O1058/O1118 (dsDNA)
DNA 1: AGCTACCATGCCTGCCTCAAGAATTCGTAATATGCCTACACTGGAGTACCGGAGCATCGTCGTGACTGGGAAAAC
DNA 2: GTTTTCCCAGTCACGACGATGCTCCGGTACTCCAGTGTAGGCATATTACGAATTCTTGAGGCAGGCATGGTAGCT
B1: no binding ([1]; blunt); no binding ([2]; blunt).

B2: partial duplex O1054/O1118 (mixed)
DNA 1: AGCTACCATGCCTGCCTCAAGAATTCGTAA
DNA 2: B1 DNA 2
B2: no binding [1, 5]; binds [2, 5].

B3: replication fork O1054/O1056/O1058/O1118 (structured_DNA)
DNA 1: B2 DNA 1
DNA 2: TTACGAATTCTTGAGGCAGGCATGGTAGCT
DNA 3: B1 DNA 1
DNA 4: B1 DNA 2
B3: no binding ([1]; fork 1:4 2:3 3:4, two 30 bp daughter arms, 45 bp parental duplex, no ss region); binds [3].

B4: replication fork O1054/O1056/O1058/O3063 (structured_DNA)
DNA 1: B2 DNA 1
DNA 2: B3 DNA 2
DNA 3: B1 DNA 1
DNA 4: B1 DNA 2
B4: binds [4].
